# In US20220387578A1:
# What was measured:
# [1] = biological target: H15 HA A/shearwater/Western Australia/2576/1979, recombinant (influenza A virus)
# [2] = biological target: H3 HA A/Hong Kong/1/1968 (H3N2), recombinant soluble trimer (influenza A virus) (UniProt Q91MA7)
# [3] = biological target: H12 HA A/duck/Alberta/60/1976, recombinant (influenza A virus)
# [4] = biological target: H9 HA A/Hong Kong/1073/99, recombinant (influenza A virus)
# [5] = biological target: H7 HA A/Shanghai/2/2013 (H7N9), recombinant uncleaved trimer (influenza A virus)
# [6] = biological target: H14 HA A/mallard duck/Astrakhan/263/1982, recombinant (influenza A virus)
# [7] = biological target: H5 HA A/Indonesia/05/2005 (H5N1), recombinant (influenza A virus)
# [8] = biological target: H2 HA A/Singapore/1/1957, recombinant soluble trimer (influenza A virus)
Substance,EC50 [1] [µg/mL],EC50 [2] [µg/mL],EC50 [3] [µg/mL],EC50 relative to wild type rFluA-20 [4] [fold],EC50 relative to wild type rFluA-20 [5] [fold],EC50 relative to wild type rFluA-20 [6] [fold],EC50 relative to wild type rFluA-20 [7] [fold],EC50 [8] [µg/mL],EC50 [4] [µg/mL],EC50 [5] [µg/mL],EC50 relative to wild type rFluA-20 [1] [fold],EC50 relative to wild type rFluA-20 [3] [fold]
rFluA-20 heavy chain mutant C101A (antibody),0.11,0.13,0.09,> 100,> 100,> 100,> 100,0.44,–,–,–,–
rFluA-20 light chain mutant N53A (antibody),0.06,–,0.03,–,–,> 100,> 100,0.16,0.17,0.87,–,–
rFluA-20 light chain mutant Q55A (antibody),–,–,–,–,–,–,–,–,–,–,> 100,> 100
